Results: US20190233495A1 (Sanofi, published 2019)
Non-standard residues stand in square brackets, D forms with d. Phe(4-F) = N[C@@H](Cc1ccc(F)cc1)C(=O)O; 1Nal = N[C@@H](Cc1cccc2ccccc12)C(=O)O; αMeL = CC(C)C[C@](C)(N)C(=O)O; Nle = CCCC[C@H](N)C(=O)O; Aib = CC(C)(N)C(=O)O

T1: RXFP1 receptor (UniProt Q9HBX9 1-757, limits assumed)
T1 sequence (looked up): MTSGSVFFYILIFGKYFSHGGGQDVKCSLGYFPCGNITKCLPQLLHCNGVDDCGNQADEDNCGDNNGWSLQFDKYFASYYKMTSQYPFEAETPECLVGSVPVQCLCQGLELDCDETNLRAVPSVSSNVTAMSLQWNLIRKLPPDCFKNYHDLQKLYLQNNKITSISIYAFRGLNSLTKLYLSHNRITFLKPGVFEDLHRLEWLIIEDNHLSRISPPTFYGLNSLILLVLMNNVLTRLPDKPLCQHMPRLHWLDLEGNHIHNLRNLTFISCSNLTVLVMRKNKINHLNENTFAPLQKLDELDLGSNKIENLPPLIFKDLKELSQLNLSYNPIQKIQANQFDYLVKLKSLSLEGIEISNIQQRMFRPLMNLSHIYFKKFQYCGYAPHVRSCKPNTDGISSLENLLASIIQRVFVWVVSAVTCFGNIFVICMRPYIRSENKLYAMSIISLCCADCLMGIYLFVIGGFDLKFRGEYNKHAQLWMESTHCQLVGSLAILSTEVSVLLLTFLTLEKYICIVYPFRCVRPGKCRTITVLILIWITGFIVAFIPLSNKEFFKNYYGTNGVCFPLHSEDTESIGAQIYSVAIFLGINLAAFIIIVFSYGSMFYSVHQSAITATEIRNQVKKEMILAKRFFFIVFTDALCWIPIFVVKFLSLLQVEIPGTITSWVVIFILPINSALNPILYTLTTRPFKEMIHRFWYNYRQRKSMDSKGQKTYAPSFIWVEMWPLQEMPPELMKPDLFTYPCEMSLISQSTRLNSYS


Target: T1, RXFP1 receptor
Assay: cell-based or functional assay

Binder	cAMP assay in OVCAR 5 cells EC50	cAMP assay in OVCAR 5 cells Emax
Ac-LEGREKVRAQI[Aib][Aib]EGQSTYS[Aib]RKK-NH2 (SMILES CC[C@H](C)[C@H](NC(=O)[C@H](CCC(N)=O)NC(=O)[C@H](C)NC(=O)[C@H](CCCNC(=N)N)NC(=O)[C@@H](NC(=O)[C@H](CCCCN)NC(=O)[C@H](CCC(=O)O)NC(=O)[C@H](CCCNC(=N)N)NC(=O)CNC(=O)[C@H](CCC(=O)O)NC(=O)[C@H](CC(C)C)NC(C)=O)C(C)C)C(=O)NC(C)(C)C(=O)NC(C)(C)C(=O)N[C@@H](CCC(=O)O)C(=O)NCC(=O)N[C@@H](CCC(N)=O)C(=O)N[C@@H](CO)C(=O)N[C@H](C(=O)N[C@@H](Cc1ccc(O)cc1)C(=O)N[C@@H](CO)C(=O)NC(C)(C)C(=O)N[C@@H](CCCNC(=N)N)C(=O)N[C@@H](CCCCN)C(=O)N[C@@H](CCCCN)C(N)=O)[C@@H](C)O) [SEQ ID NO: 58]	41 nM	93%
Ac-LEGREKVRAQI[Aib]IEG[Nle]SKWSKRKK-NH2 (SMILES CCCC[C@H](NC(=O)CNC(=O)[C@H](CCC(=O)O)NC(=O)[C@@H](NC(=O)C(C)(C)NC(=O)[C@@H](NC(=O)[C@H](CCC(N)=O)NC(=O)[C@H](C)NC(=O)[C@H](CCCNC(=N)N)NC(=O)[C@@H](NC(=O)[C@H](CCCCN)NC(=O)[C@H](CCC(=O)O)NC(=O)[C@H](CCCNC(=N)N)NC(=O)CNC(=O)[C@H](CCC(=O)O)NC(=O)[C@H](CC(C)C)NC(C)=O)C(C)C)[C@@H](C)CC)[C@@H](C)CC)C(=O)N[C@@H](CO)C(=O)N[C@@H](CCCCN)C(=O)N[C@@H](Cc1c[nH]c2ccccc12)C(=O)N[C@@H](CO)C(=O)N[C@@H](CCCCN)C(=O)N[C@@H](CCCNC(=N)N)C(=O)N[C@@H](CCCCN)C(=O)N[C@@H](CCCCN)C(N)=O) [SEQ ID NO: 8]	60 nM	103%
Ac-LEGREKVRAQI[Aib][Aib]EGQSTFS[Aib]RKK-NH2 (SMILES CC[C@H](C)[C@H](NC(=O)[C@H](CCC(N)=O)NC(=O)[C@H](C)NC(=O)[C@H](CCCNC(=N)N)NC(=O)[C@@H](NC(=O)[C@H](CCCCN)NC(=O)[C@H](CCC(=O)O)NC(=O)[C@H](CCCNC(=N)N)NC(=O)CNC(=O)[C@H](CCC(=O)O)NC(=O)[C@H](CC(C)C)NC(C)=O)C(C)C)C(=O)NC(C)(C)C(=O)NC(C)(C)C(=O)N[C@@H](CCC(=O)O)C(=O)NCC(=O)N[C@@H](CCC(N)=O)C(=O)N[C@@H](CO)C(=O)N[C@H](C(=O)N[C@@H](Cc1ccccc1)C(=O)N[C@@H](CO)C(=O)NC(C)(C)C(=O)N[C@@H](CCCNC(=N)N)C(=O)N[C@@H](CCCCN)C(=O)N[C@@H](CCCCN)C(N)=O)[C@@H](C)O) [SEQ ID NO: 57]	24.4 nM	91%
Ac-LEGREKVRAQI[Aib][Aib]EGQST[Phe(4-F)]S[Aib]RKK-NH2 (SMILES CC[C@H](C)[C@H](NC(=O)[C@H](CCC(N)=O)NC(=O)[C@H](C)NC(=O)[C@H](CCCNC(=N)N)NC(=O)[C@@H](NC(=O)[C@H](CCCCN)NC(=O)[C@H](CCC(=O)O)NC(=O)[C@H](CCCNC(=N)N)NC(=O)CNC(=O)[C@H](CCC(=O)O)NC(=O)[C@H](CC(C)C)NC(C)=O)C(C)C)C(=O)NC(C)(C)C(=O)NC(C)(C)C(=O)N[C@@H](CCC(=O)O)C(=O)NCC(=O)N[C@@H](CCC(N)=O)C(=O)N[C@@H](CO)C(=O)N[C@H](C(=O)N[C@@H](Cc1ccc(F)cc1)C(=O)N[C@@H](CO)C(=O)NC(C)(C)C(=O)N[C@@H](CCCNC(=N)N)C(=O)N[C@@H](CCCCN)C(=O)N[C@@H](CCCCN)C(N)=O)[C@@H](C)O) [SEQ ID NO: 59]	29.8 nM	86%

Other lines, results leading:

cAMP assay in OVCAR 5 cells EC50	cAMP assay in OVCAR 5 cells Emax	Binder
56.6 nM	101%	Ac-LEGREKVR[Aib]QI[Aib]IEGMSKWSKRKK-NH2 (SMILES CC[C@H](C)[C@H](NC(=O)[C@H](CCC(N)=O)NC(=O)C(C)(C)NC(=O)[C@H](CCCNC(=N)N)NC(=O)[C@@H](NC(=O)[C@H](CCCCN)NC(=O)[C@H](CCC(=O)O)NC(=O)[C@H](CCCNC(=N)N)NC(=O)CNC(=O)[C@H](CCC(=O)O)NC(=O)[C@H](CC(C)C)NC(C)=O)C(C)C)C(=O)NC(C)(C)C(=O)N[C@H](C(=O)N[C@@H](CCC(=O)O)C(=O)NCC(=O)N[C@@H](CCSC)C(=O)N[C@@H](CO)C(=O)N[C@@H](CCCCN)C(=O)N[C@@H](Cc1c[nH]c2ccccc12)C(=O)N[C@@H](CO)C(=O)N[C@@H](CCCCN)C(=O)N[C@@H](CCCNC(=N)N)C(=O)N[C@@H](CCCCN)C(=O)N[C@@H](CCCCN)C(N)=O)[C@@H](C)CC) [SEQ ID NO: 7]
37.6 nM	100%	Ac-LEGREKVRAQI[Aib]IEGMSK[1Nal]SKRKK-NH2 (SMILES CC[C@H](C)[C@H](NC(=O)[C@H](CCC(N)=O)NC(=O)[C@H](C)NC(=O)[C@H](CCCNC(=N)N)NC(=O)[C@@H](NC(=O)[C@H](CCCCN)NC(=O)[C@H](CCC(=O)O)NC(=O)[C@H](CCCNC(=N)N)NC(=O)CNC(=O)[C@H](CCC(=O)O)NC(=O)[C@H](CC(C)C)NC(C)=O)C(C)C)C(=O)NC(C)(C)C(=O)N[C@H](C(=O)N[C@@H](CCC(=O)O)C(=O)NCC(=O)N[C@@H](CCSC)C(=O)N[C@@H](CO)C(=O)N[C@@H](CCCCN)C(=O)N[C@@H](Cc1cccc2ccccc12)C(=O)N[C@@H](CO)C(=O)N[C@@H](CCCCN)C(=O)N[C@@H](CCCNC(=N)N)C(=O)N[C@@H](CCCCN)C(=O)N[C@@H](CCCCN)C(N)=O)[C@@H](C)CC) [SEQ ID NO: 9]
44.8 nM	102%	Ac-[Aib]EGREKVRAQI[Aib][Aib]EGMSKWSKRKK-NH2 (SMILES CC[C@H](C)[C@H](NC(=O)[C@H](CCC(N)=O)NC(=O)[C@H](C)NC(=O)[C@H](CCCNC(=N)N)NC(=O)[C@@H](NC(=O)[C@H](CCCCN)NC(=O)[C@H](CCC(=O)O)NC(=O)[C@H](CCCNC(=N)N)NC(=O)CNC(=O)[C@H](CCC(=O)O)NC(=O)C(C)(C)NC(C)=O)C(C)C)C(=O)NC(C)(C)C(=O)NC(C)(C)C(=O)N[C@@H](CCC(=O)O)C(=O)NCC(=O)N[C@@H](CCSC)C(=O)N[C@@H](CO)C(=O)N[C@@H](CCCCN)C(=O)N[C@@H](Cc1c[nH]c2ccccc12)C(=O)N[C@@H](CO)C(=O)N[C@@H](CCCCN)C(=O)N[C@@H](CCCNC(=N)N)C(=O)N[C@@H](CCCCN)C(=O)N[C@@H](CCCCN)C(N)=O) [SEQ ID NO: 11]
12.3 nM	95%	Ac-[αMeL]EGREKVRAK(Ac)I[Aib][Aib]EG[Nle]STWS[Aib]RKK(Ac)-NH2 (SMILES CCCC[C@H](NC(=O)CNC(=O)[C@H](CCC(=O)O)NC(=O)C(C)(C)NC(=O)C(C)(C)NC(=O)[C@@H](NC(=O)[C@H](CCCCNC(C)=O)NC(=O)[C@H](C)NC(=O)[C@H](CCCNC(=N)N)NC(=O)[C@@H](NC(=O)[C@H](CCCCN)NC(=O)[C@H](CCC(=O)O)NC(=O)[C@H](CCCNC(=N)N)NC(=O)CNC(=O)[C@H](CCC(=O)O)NC(=O)[C@](C)(CC(C)C)NC(C)=O)C(C)C)[C@@H](C)CC)C(=O)N[C@@H](CO)C(=O)N[C@H](C(=O)N[C@@H](Cc1c[nH]c2ccccc12)C(=O)N[C@@H](CO)C(=O)NC(C)(C)C(=O)N[C@@H](CCCNC(=N)N)C(=O)N[C@@H](CCCCN)C(=O)N[C@@H](CCCCNC(C)=O)C(N)=O)[C@@H](C)O) [SEQ ID NO: 56]
22.9 nM	103%	Ac-LEGREKVRAQI[Aib][Aib]EGMSTWSKRKK-NH2 (SMILES CC[C@H](C)[C@H](NC(=O)[C@H](CCC(N)=O)NC(=O)[C@H](C)NC(=O)[C@H](CCCNC(=N)N)NC(=O)[C@@H](NC(=O)[C@H](CCCCN)NC(=O)[C@H](CCC(=O)O)NC(=O)[C@H](CCCNC(=N)N)NC(=O)CNC(=O)[C@H](CCC(=O)O)NC(=O)[C@H](CC(C)C)NC(C)=O)C(C)C)C(=O)NC(C)(C)C(=O)NC(C)(C)C(=O)N[C@@H](CCC(=O)O)C(=O)NCC(=O)N[C@@H](CCSC)C(=O)N[C@@H](CO)C(=O)N[C@H](C(=O)N[C@@H](Cc1c[nH]c2ccccc12)C(=O)N[C@@H](CO)C(=O)N[C@@H](CCCCN)C(=O)N[C@@H](CCCNC(=N)N)C(=O)N[C@@H](CCCCN)C(=O)N[C@@H](CCCCN)C(N)=O)[C@@H](C)O) [SEQ ID NO: 10]
